Substrate in series [1]: Nc1ncnc2c1ncn2[C@@H]1O[C@H](COP(=O)(O)OP(=O)(O)O)[C@@H](O)[C@H]1O
Put plainly: luciferin/luciferase luminescence assay of ATP synthesis, proteoliposomes. The series is classed as biochemical, Enterococcus hirae. To be noted: ATP synthesis direction, 74 mM Pi, 5 mM MgCl2, pH 7.0, 25 °C, smf 269.3 mV (Δψ 154.7 mV, ΔpNa 114.6 mV). From the text:
luciferin/luciferase luminescence assay of ATP synthesis, proteoliposomes on EhVoV1 (Enterococcus hirae V-ATPase)

Substrate in the series “purified protein”: O=P(O)(O)O
Put plainly: purified protein. The conditions noted are these: ATP synthesis direction, 0.5 mM ADP, 5 mM MgCl2, pH 7.0, 25 °C, smf 269.3 mV (Δψ 154.7 mV, ΔpNa 114.6 mV).

B1: EhVoV1 (Enterococcus hirae V-ATPase) (Enterococcus hirae ATCC 9790) (protein)
chain 1: MQIGKIIKVSGPLVMAENMSEASIQDMCLVGDLGVIGEIIEMRQDVASIQVYEETSGIGPGEPVRSTGEALSVELGPGIISQMFDGIQRPLDTFMEVTQSNFLGRGVQLPALDHEKQWWFEATIEEGTEVSAGDIIGYVDETKIIQHKIMVPNGIKGTVQKIESGSFTIDDPICVIETEQGLKELTMMQKWPVRRGRPIKQKLNPDVPMITGQRVIDTFFPVTKGGAAAVPGPFGAGKTVVQHQIAKWSDVDLVVYVGCGERGNEMTDVVNEFPELIDPNTGESLMERTVLIANTSNMPVAAREASIYTGITIAEYFRDMGYDVAIMADSTSRWAEALREMSGRLEEMPGDEGYPAYLGSRLAEYYERSGRVIALGSDQREGSITAISAVSPSGGDISEPVTQNTLRVVKVFWGLDSSLAQKRHFPSINWIQSYSLYSTEVGRYMDQILQQDWSDMVTEGMRILQEEEQLNEIVRLVGIDSLSDNDRLTLEVAKSIREDYLQQNAFDDVDTFTSREKQFNMLKVILTFGKEARKALSLGAYFNEIMEGTVAVRERISRSKYIPEEELAKISSINEEIKETIQLIVSEGGMTDD
chain 2: MIKEYRTIKEVVGPLMAVEKVSGVKYEELIEVRMQNGEIRRGQVLEVQEDKAMVQIFEGTSGINLKNSSVRFLGHPLQLGVSEDMIGRVFDGLGRPKDNGPEILPEKYLDINGEVINPIARDYPDEFIQTGISAIDHLNTLVRGQKLPVFSGSGLPHKELAAQIARQATVLDSSDDFAVVFAAIGITFEEAEFFMEDFRQTGAIDRSVMFMNLANDPAIERIATPRMALTAAEYLAYEKGMHVLVIMTDMTNYAEALREISAARREVPGRRGYPGYLYTNLATLFERAGRIRGLKGSVTQIPILTMPEDDKTHPIPDLTGYITEGQIILTRELYKSGIQPPIDVLPSLSRLKDKGTGAGKTREDHAATMNQLFAAYAQGKQAKELAVVLGESALSDIDKIYAKFAERFENEYVNQGFYTNRTITETLDLGWELLAMLPRTELKRIKDDLLDKYLPEGK
notes: whole VoV1 complex, His tags on c-subunits, expressed in E. coli C41(DE3), DDM-solubilised, Ni-NTA and size exclusion, reconstituted into soybean phosphatidylcholine liposomes; with V-type sodium ATPase subunit D; V-type sodium ATPase subunit G; V-type sodium ATPase subunit E; V-type sodium ATPase subunit F; V-type sodium ATPase subunit C; V-type sodium ATPase subunit I; V-type sodium ATPase …
By Km is commonly meant the substrate concentration at which the rate is half of its maximum. Usually kcat stands for the number of substrate molecules converted per active site and unit of time at saturation. B1: the figures for the Km (in series [1]; in the series “purified protein”) were 21 ± 2 µM and 2100 ± 200 µM, respectively. The kcat (in series [1]; in “purified protein”) was 4.7 s⁻¹ throughout.
